# Reference: patent US20170355774A1 (Regeneron, published 2017)
# T1: human GITR (amino acids M1-V241, NCBI Accession #NP_004186.1) expressed on cells (human, UniProt Q9Y5U5 26-241)
# T1 sequence: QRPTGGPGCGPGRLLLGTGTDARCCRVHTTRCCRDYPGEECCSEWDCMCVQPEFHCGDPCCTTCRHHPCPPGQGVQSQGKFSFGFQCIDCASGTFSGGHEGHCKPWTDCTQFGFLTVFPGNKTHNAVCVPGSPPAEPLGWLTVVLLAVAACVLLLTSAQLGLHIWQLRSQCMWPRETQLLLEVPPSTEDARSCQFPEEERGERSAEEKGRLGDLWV
# T2: mfGITR.mmh (Macaca fasicularis)
# T2 construct: soluble monomeric construct; also called Macaca fasicularis (mf) GITR.mmh; cynomolgus GITR protein
# T2 chain: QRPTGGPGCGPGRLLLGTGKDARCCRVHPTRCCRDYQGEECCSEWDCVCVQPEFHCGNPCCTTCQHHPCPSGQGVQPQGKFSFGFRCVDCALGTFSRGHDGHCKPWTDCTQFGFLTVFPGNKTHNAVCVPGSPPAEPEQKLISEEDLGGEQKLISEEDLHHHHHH
# T3: hGITR.mFc (human)
# T3 construct: soluble dimeric construct with mouse Fc; also called dimeric human GITR
# T3 chain: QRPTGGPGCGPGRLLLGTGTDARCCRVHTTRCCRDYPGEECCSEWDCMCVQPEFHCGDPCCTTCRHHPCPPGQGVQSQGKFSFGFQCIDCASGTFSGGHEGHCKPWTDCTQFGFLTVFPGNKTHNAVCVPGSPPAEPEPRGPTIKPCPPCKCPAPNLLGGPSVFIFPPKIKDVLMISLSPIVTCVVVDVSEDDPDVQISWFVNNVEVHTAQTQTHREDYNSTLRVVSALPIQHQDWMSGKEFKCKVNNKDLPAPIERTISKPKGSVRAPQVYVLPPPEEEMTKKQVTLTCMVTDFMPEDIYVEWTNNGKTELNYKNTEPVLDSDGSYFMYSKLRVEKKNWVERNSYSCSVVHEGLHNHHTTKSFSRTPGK
# T4: hGITR.mmh (human)
# T4 construct: soluble monomeric construct; also called human (h) GITR.mmh; monomeric human GITR
# T4 chain: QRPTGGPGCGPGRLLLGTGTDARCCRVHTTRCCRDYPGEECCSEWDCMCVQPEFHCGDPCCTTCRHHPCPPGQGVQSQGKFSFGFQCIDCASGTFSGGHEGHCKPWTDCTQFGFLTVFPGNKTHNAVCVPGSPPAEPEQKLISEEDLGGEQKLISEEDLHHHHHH
# B1: H1H14512P (antibody, human IgG1, V domains shown)
# VH: QVQLVESGGGVVQPGRSLRLSCAVSGFTLSSYGMDWVRQAPGKGLEWVAVIWYDGSNKYYSDSVKGRFTISRDNSKNTLFLQMNSLRADDTAVYYCARDGELGLDYYSGMDVWGQGTTVTVSS
# VL: DIQMTQSPSSLSASVGDRVTITCRASQDIRNDLGWYQQKPGKAPKRLIYGASSLQSGVPSRFSGSGSGTEFTLTISSLQPEDFATYYCLQLNSYPRTFGQGTKVEIK
# notes: human IgG1 (H1H)
# B2: H4H14475P (antibody, human IgG4, V domains shown)
# VH: QVQLVESGGGVVQPGRSLRLSCAASGTIFSTHGMHWVRQAPGKGLEWVAVISYDGNKKYYAGSVKGRFTISRDNSKNTLYLQMNDVRSEDTAVYHCTTDITGITDYWGQGTLVTVSS
# VL: DIQMTQSPSSLSASVGDRVTITCRASQGIGNDLGWYQQKLGKAPKRLIYAASSLESGVPSRFSGSGSGTEFILTISSLQAEDFATYYCLQHNGFPTFGQGTKVEIK
# notes: human IgG4 (H4H)
# B3: H4H14516P (antibody, human IgG4, V domains shown)
# VH: EVQLVESGGGLVQPGGSLRLSCAASGFTFSNYEMYWVRQAPGKGLEWVSYISSSGTTIYYADSVKGRFSVSRENARSSLYLQMNSLRVEDSAVYFCAKYNWNSFYGLDVWGQGTTVTVSS
# VL: AIQMTQSPSSLSASVGDRVTITCRASQDIRNDLGWYQQKPGKAPKLLISAASSLQGGVPSRFSGSGSGTDFTLTISSLQPADFATYYCLQEYNYALTFGGGTKVEIK
# notes: human IgG4 (H4H)
# Key:
# [1] = biological target: T1, human GITR (amino acids M1-V241, NCBI …); assay: cell-based or functional assay
# [2] = biological target: T1, human GITR (amino acids M1-V241, NCBI …); assay: cell-based or functional assay; remark: listed apart in the source
# [3] = biological target: T1, human GITR (amino acids M1-V241, NCBI …); assay: ECL cell binding, hGITR/HEK293-D9
# Method in brief: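 Cells blocked with 2% BSA, then antibody dilutions from 1.7 pM to 100 nM added 1 h at RT. Bound antibody detected with SULFO-TAG anti-human kappa antibody, electrochemiluminescence read, RLU fitted by four-parameter logistic; signal at 100 nM on hGITR cells versus parental cells also recorded.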
# mfGITR.mmh = biological target: T2, mfGITR.mmh; assay: SPR 37C, mAb capture
# hGITR.mFc = biological target: T3, hGITR.mFc; assay: SPR 37C, mAb capture
# hGITR.mmh = biological target: T4, hGITR.mmh; assay: SPR 37C, mAb capture
# [4] = biological target: T1, human GITR (amino acids M1-V241, NCBI …); assay: cell-based or functional assay; remark: listed apart in the source
# [5] = biological target: T1, human GITR (amino acids M1-V241, NCBI …); assay: cell-based or functional assay; remark: listed apart in the source
# [6] = biological target: T1, human GITR (amino acids M1-V241, NCBI …); assay: cell-based or functional assay; remark: listed apart in the source
binder,measurement,setting,value
B1,"% Activation, NF-kB-Luc, non-anchored",[1],20%
same,"% Blocking, NF-kB-Luc, non-anchored",[1],100%
same,"EC50, hGITR activation, NF-kB-Luc, non-anchored",[1],1200 pM
same,"IC50, blocking of hGITRL stimulation, NF-kB-Luc, non-anchored",[1],700 pM
same,"EC50, hGITR activation, NF-kB-Luc, FcgR anchored",[2],20 pM
same,"Fold Activation over basal signal, NF-kB-Luc, FcgR anchored",[2],7 fold
same,"IC50, blocking of hGITRL stimulation, NF-kB-Luc, FcgR anchored",[2],100 pM
same,Average Signal (RLU) at 100 nM,[3],4620 RLU
same,EC50,[3],250 pM
B2,"% Activation, NF-kB-Luc, non-anchored",[1],70%
same,"% Blocking, NF-kB-Luc, non-anchored",[1],-2%
same,"EC50, hGITR activation, NF-kB-Luc, non-anchored",[1],1000 pM
same,Kd,mfGITR.mmh,41700 pM
same,koff,mfGITR.mmh,0.00765 s⁻¹
same,kon,mfGITR.mmh,183000 M⁻¹ s⁻¹
same,t½,mfGITR.mmh,1.5 min
same,Kd,hGITR.mFc,847 pM
same,koff,hGITR.mFc,0.00135 s⁻¹
same,kon,hGITR.mFc,1.6e+06 M⁻¹ s⁻¹
same,t½,hGITR.mFc,8.5 min
same,Kd,hGITR.mmh,45700 pM
same,koff,hGITR.mmh,0.014 s⁻¹
same,kon,hGITR.mmh,307000 M⁻¹ s⁻¹
same,t½,hGITR.mmh,0.8 min
same,"fold activation, T-cell proliferation, 33 nM, FcgR anchored, donor 1",[4],1 fold
same,"fold activation, T-cell proliferation, 33 nM, FcgR anchored, donor 2",[4],1.3 fold
same,"fold activation, T-cell proliferation, 33 nM, FcgR anchored, donor 3",[4],1.3 fold
same,"fold activation, T-cell proliferation, 33 nM, FcgR anchored, donor 4",[4],1.6 fold
same,"fold activation, T-cell proliferation, 33 nM, FcgR anchored, donor 5",[4],1.5 fold
same,"fold activation, T-cell proliferation, 33 nM, FcgR anchored, mean",[4],1.3 fold
same,"fold activation, T-cell proliferation, 22 nM, non-anchored, donor 1",[5],0.7 fold
same,"fold activation, T-cell proliferation, 22 nM, non-anchored, donor 2",[5],1.1 fold
same,"fold activation, T-cell proliferation, 22 nM, non-anchored, donor 3",[5],0.8 fold
same,"fold activation, T-cell proliferation, 22 nM, non-anchored, donor 4",[5],0.8 fold
same,"fold activation, T-cell proliferation, 22 nM, non-anchored, mean",[5],0.9 fold
same,"EC50, hGITR activation, NF-kB-Luc, FcgR anchored",[2],40 pM
same,"Fold Activation over basal signal, NF-kB-Luc, FcgR anchored",[2],8 fold
same,"IC50, blocking of hGITRL stimulation, NF-kB-Luc, FcgR anchored",[2],200 pM
same,"fold activation, T-cell proliferation, plate-bound Ab 10.6 nM, donor 1",[6],0 fold
same,"fold activation, T-cell proliferation, plate-bound Ab 10.6 nM, donor 2",[6],2 fold
same,"fold activation, T-cell proliferation, plate-bound Ab 10.6 nM, donor 3",[6],2 fold
same,"fold activation, T-cell proliferation, plate-bound Ab 10.6 nM, donor 4",[6],2 fold
same,"fold activation, T-cell proliferation, plate-bound Ab 10.6 nM, donor 5",[6],2 fold
same,"fold activation, T-cell proliferation, plate-bound Ab 10.6 nM, donor 6",[6],12 fold
same,"fold activation, T-cell proliferation, plate-bound Ab 10.6 nM, donor 7",[6],1 fold
same,"fold activation, T-cell proliferation, plate-bound Ab 10.6 nM, donor 8",[6],0 fold
same,"fold activation, T-cell proliferation, plate-bound Ab 10.6 nM, mean",[6],3 fold
same,Average Signal (RLU) at 100 nM,[3],7500 RLU
same,EC50,[3],8000 pM
B3,"% Activation, NF-kB-Luc, non-anchored",[1],45%
same,"% Blocking, NF-kB-Luc, non-anchored",[1],70%
same,"EC50, hGITR activation, NF-kB-Luc, non-anchored",[1],800 pM
same,"IC50, blocking of hGITRL stimulation, NF-kB-Luc, non-anchored",[1],2300 pM
same,Kd,mfGITR.mmh,58700 pM
same,koff,mfGITR.mmh,0.0112 s⁻¹
same,kon,mfGITR.mmh,190000 M⁻¹ s⁻¹
same,t½,mfGITR.mmh,1 min
same,Kd,hGITR.mFc,1080 pM
same,koff,hGITR.mFc,0.00181 s⁻¹
same,kon,hGITR.mFc,1.68e+06 M⁻¹ s⁻¹
same,t½,hGITR.mFc,6.4 min
same,Kd,hGITR.mmh,32700 pM
same,koff,hGITR.mmh,0.00738 s⁻¹
same,kon,hGITR.mmh,225000 M⁻¹ s⁻¹
same,t½,hGITR.mmh,1.6 min
same,"fold activation, T-cell proliferation, 33 nM, FcgR anchored, donor 1",[4],1.2 fold
same,"fold activation, T-cell proliferation, 33 nM, FcgR anchored, donor 2",[4],0.9 fold
same,"fold activation, T-cell proliferation, 33 nM, FcgR anchored, donor 3",[4],1.2 fold
same,"fold activation, T-cell proliferation, 33 nM, FcgR anchored, donor 4",[4],1.3 fold
same,"fold activation, T-cell proliferation, 33 nM, FcgR anchored, donor 5",[4],1.1 fold
same,"fold activation, T-cell proliferation, 33 nM, FcgR anchored, mean",[4],1.1 fold
same,"fold activation, T-cell proliferation, 22 nM, non-anchored, donor 1",[5],0.7 fold
same,"fold activation, T-cell proliferation, 22 nM, non-anchored, donor 2",[5],1.2 fold
same,"fold activation, T-cell proliferation, 22 nM, non-anchored, donor 3",[5],1 fold
same,"fold activation, T-cell proliferation, 22 nM, non-anchored, donor 4",[5],0.9 fold
same,"fold activation, T-cell proliferation, 22 nM, non-anchored, mean",[5],0.9 fold
same,"fold activation, T-cell proliferation, plate-bound Ab 10.6 nM, donor 1",[6],1 fold
same,"fold activation, T-cell proliferation, plate-bound Ab 10.6 nM, donor 2",[6],4 fold
same,"fold activation, T-cell proliferation, plate-bound Ab 10.6 nM, donor 3",[6],4 fold
same,"fold activation, T-cell proliferation, plate-bound Ab 10.6 nM, donor 4",[6],12 fold
same,"fold activation, T-cell proliferation, plate-bound Ab 10.6 nM, donor 5",[6],4 fold
same,"fold activation, T-cell proliferation, plate-bound Ab 10.6 nM, donor 6",[6],14 fold
same,"fold activation, T-cell proliferation, plate-bound Ab 10.6 nM, donor 7",[6],4 fold
same,"fold activation, T-cell proliferation, plate-bound Ab 10.6 nM, donor 8",[6],1 fold
same,"fold activation, T-cell proliferation, plate-bound Ab 10.6 nM, mean",[6],5 fold
same,Average Signal (RLU) at 100 nM,[3],10300 RLU
same,EC50,[3],700 pM
